Data set [1] deals with T1, MBD-Halo-AF660 (Homo sapiens, UniProt Q9UIS9 1-77).
T1 sequence: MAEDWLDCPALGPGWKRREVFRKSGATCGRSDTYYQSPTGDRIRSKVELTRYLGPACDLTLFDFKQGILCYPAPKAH
The experiment in a line: single-molecule TIRF.

Data set [2] addresses T1, MBD-Halo-AF660. The experiment in a line: single-molecule TIRF. The source holds these as a separate data set.
Data set [3] has as its target T1, MBD-Halo-AF660. The experiment in a line: single-molecule TIRF. This is another data set of the same source.
For data set [4], the target named is T1, MBD-Halo-AF660. The experiment in a line: single-molecule TIRF. The source holds these as a separate data set.
Data set [5] deals with T1, MBD-Halo-AF660. The experiment in a line: single-molecule TIRF. This is another data set of the same source.
The target in data set [6] is T1, MBD-Halo-AF660. The experiment in a line: single-molecule TIRF. The source holds these as a separate data set.
In data set [7] the target is T1, MBD-Halo-AF660. The experiment in a line: single-molecule TIRF. The source holds these as a separate data set.
Data set [8] addresses T1, MBD-Halo-AF660. The experiment in a line: single-molecule TIRF. The source holds these as a separate data set.
The target in data set [9] is T1, MBD-Halo-AF660. The experiment in a line: EMSA. On the technique in general: In EMSA bound probe runs differently from free probe, usually more slowly.
In data set [10] the target is T2, MBD-Halo (MBD1 MBD-GGGSG-HaloTag) (Homo sapiens, UniProt Q9UIS9 1-77).
T2 sequence: T1 sequence
The experiment in a line: EMSA.

In data set [11] the target is T1, MBD-Halo-AF660. The experiment in a line: single-molecule TIRF. The source holds these as a separate data set.
For data set [12], the target named is T1, MBD-Halo-AF660. The experiment in a line: single-molecule TIRF. This is another data set of the same source.
Data set [13] concerns the target T1, MBD-Halo-AF660. The experiment in a line: single-molecule TIRF. The source holds these as a separate data set.
For data set [14], the target named is T1, MBD-Halo-AF660. The experiment in a line: single-molecule TIRF. The source holds these as a separate data set.
The target in data set [15] is T1, MBD-Halo-AF660. The experiment in a line: single-molecule TIRF. The source holds these as a separate data set.
Data set [16] concerns the target T1, MBD-Halo-AF660. The experiment in a line: single-molecule TIRF. The source holds these as a separate data set.

B1: SM single-molecule (M7-A39m-CPO) (dsDNA)
DNA 1: GTCTTCCTGCTGATGCAATCCGCTAGGTCGCGAGTCTCCGCCGCGAGAGGGCCGG
DNA 2: CCGGCCCTCTCGCGGCGGAGACTCGCGACCTAGCGGATT
DNA 3: ATAATTAATAGCATCAGCAGGAAGAC
modifications: 5mC strand 1: 21,29,31,39,42,44,53; strand 2: 2,11,13,16,24,26,34
For B1, in the data set with MBD-Halo-AF660 [1], the binding result was “binds”.

B2: M0-CP (structured_DNA)
DNA 1: B1 DNA 1
DNA 2: GCATCAGCAGGAAGAC
For the molecule B2, the binding result with MBD-Halo-AF660 [2] was “no binding”.

B3: M4a-A17O-CP (mixed)
DNA 1: B1 DNA 1
DNA 2: CTTATCTGTTTCGCGACCTAGCGGATT
DNA 3: GCATCAGCAGGAAGAC
modifications: 5mC strand 1: 29,31,42,44
Regarding B3, the binding result with MBD-Halo-AF660 [3] is recorded as “binds”.

B4: M4a-CP (structured_DNA)
DNA 1: B1 DNA 1
DNA 2: GCATCAGCAGGAAGAC
modifications: 5mC strand 1: 29,31,42,44
For the molecule B4, the binding result with MBD-Halo-AF660 [4] was “binds”.

B5: M7-A17O-CP (mixed)
DNA 1: B1 DNA 1
DNA 2: CTTATCTGTTTCGCGACCTAGCGGATT
DNA 3: GCATCAGCAGGAAGAC
modifications: 5mC strand 1: 21,29,31,39,42,44,53
B5: the binding result with MBD-Halo-AF660 [5] is listed as “binds”.

B6: M2c-A39m-CP (dsDNA)
DNA 1: B1 DNA 1
DNA 2: B1 DNA 2
DNA 3: GCATCAGCAGGAAGAC
modifications: 5mC strand 1: 42,53; strand 2: 2,11,13,16,24,26,34
With B6, the binding result with MBD-Halo-AF660 [2] was “no binding”.

B7: M7-A17O-CPO (mixed)
DNA 1: B1 DNA 1
DNA 2: CTTATCTGTTTCGCGACCTAGCGGATT
DNA 3: ATAATTAATAGCATCAGCAGGAAGAC
modifications: 5mC strand 1: 21,29,31,39,42,44,53
For the molecule B7, the binding result with MBD-Halo-AF660 [6] is on record as “binds”.

B8: M1b-A39m-CP (dsDNA)
DNA 1: B1 DNA 1
DNA 2: B1 DNA 2
DNA 3: GCATCAGCAGGAAGAC
modifications: 5mC strand 1: 53; strand 2: 2,11,13,16,24,26,34
Turning to B8, the binding result in the data set with MBD-Halo-AF660 [2] was “no binding”.

B9: M4a-A39m-CP (dsDNA)
DNA 1: B1 DNA 1
DNA 2: B1 DNA 2
DNA 3: GCATCAGCAGGAAGAC
modifications: 5mC strand 1: 29,31,42,44; strand 2: 2,11,13,16,24,26,34
Take B9: the binding result in the data set with MBD-Halo-AF660 [7] is “binds”.

B10: M7-A39-CP (dsDNA)
DNA 1: B1 DNA 1
DNA 2: B1 DNA 2
DNA 3: GCATCAGCAGGAAGAC
modifications: 5mC strand 1: 21,29,31,39,42,44,53
For B10, the binding result with MBD-Halo-AF660 [2] was “no binding”.

B11: M4a-CPO (structured_DNA)
DNA 1: B1 DNA 1
DNA 2: ATAATTAATAGCATCAGCAGGAAGAC
modifications: 5mC strand 1: 29,31,42,44
Consider B11, for which the binding result with MBD-Halo-AF660 [8] is recorded as “binds”.

B12: SM 55 bp (M7/M7_rev) (dsDNA)
DNA 1: B1 DNA 1
DNA 2: CCGGCCCTCTCGCGGCGGAGACTCGCGACCTAGCGGATTGCATCAGCAGGAAGAC
modifications: 5mC strand 1: 21,29,31,39,42,44,53; strand 2: 2,11,13,16,24,26,34
As for B12, the binding result (in the data set with MBD-Halo-AF660 [9]; in data set [10]) was “binds” in each case.

B13: M7-A39m-CP (dsDNA)
DNA 1: B1 DNA 1
DNA 2: B1 DNA 2
DNA 3: GCATCAGCAGGAAGAC
modifications: 5mC strand 1: 21,29,31,39,42,44,53; strand 2: 2,11,13,16,24,26,34
B13: in the data set with MBD-Halo-AF660 [11], the binding result was “binds”.

B14: M7-A39O-CP (mixed)
DNA 1: B1 DNA 1
DNA 2: CTTATCTGTTCCGGCCCTCTCGCGGCGGAGACTCGCGACCTAGCGGATT
DNA 3: GCATCAGCAGGAAGAC
modifications: 5mC strand 1: 21,29,31,39,42,44,53
B14: in the data set with MBD-Halo-AF660 [2], the binding result was “no binding”.

B15: M7-CPO (structured_DNA)
DNA 1: B1 DNA 1
DNA 2: ATAATTAATAGCATCAGCAGGAAGAC
modifications: 5mC strand 1: 21,29,31,39,42,44,53
Regarding B15, the binding result with MBD-Halo-AF660 [12] is listed as “binds”.

B16: M7-CP (structured_DNA)
DNA 1: B1 DNA 1
DNA 2: GCATCAGCAGGAAGAC
modifications: 5mC strand 1: 21,29,31,39,42,44,53
Turning to B16, the binding result in the data set with MBD-Halo-AF660 [13] is “binds”.

B17: M2a-A39m-CP (dsDNA)
DNA 1: B1 DNA 1
DNA 2: B1 DNA 2
DNA 3: GCATCAGCAGGAAGAC
modifications: 5mC strand 1: 29,31; strand 2: 2,11,13,16,24,26,34
Take B17: in the data set with MBD-Halo-AF660 [14], the binding result is recorded as “binds”.

B18: M3a-A39m-CP (dsDNA)
DNA 1: B1 DNA 1
DNA 2: B1 DNA 2
DNA 3: GCATCAGCAGGAAGAC
modifications: 5mC strand 1: 39,42,44; strand 2: 2,11,13,16,24,26,34
For B18, in the data set with MBD-Halo-AF660 [15], the binding result is given as “binds”.
As to ATAATTAATAGCATCAGCAGGAAGAC (ssDNA) [CPO alone (NTC)], in the data set with MBD-Halo-AF660 [16], the binding result is “no binding”.

For the origin of these results see PMC11463468.
